For 2 substances, response results are on record in paper PMC10746174.

This assay has as its target heme. Briefly: UV-vis spectroscopy, as-purified Soret peak (412 nm). As to conditions: 50 µg of purified protein, as-purified (black trace); parent: est. 0.32; read off a plot.

“CcmF:6×His wild type (from UniProt P33927) W229A”: the response came to 0.2 Abs.
For “CcmF:6×His wild type (from UniProt P33927) Y231A”, the response came out at 0.18 Abs.
